Assay results: US20200190151A1 (Scripps Research, published 2020)
No end group written: not given here.

Target: T1, Kv1.3 (human potassium voltage-gated channel subfamily A member 3) (human, UniProt P22001 1-575)
T1 construct: whole, on cells
Assay: immunofluorescence staining of Kv1.3 expressing HEK293F cells, flow cytometry

T1 sequence (P22001 whole entry): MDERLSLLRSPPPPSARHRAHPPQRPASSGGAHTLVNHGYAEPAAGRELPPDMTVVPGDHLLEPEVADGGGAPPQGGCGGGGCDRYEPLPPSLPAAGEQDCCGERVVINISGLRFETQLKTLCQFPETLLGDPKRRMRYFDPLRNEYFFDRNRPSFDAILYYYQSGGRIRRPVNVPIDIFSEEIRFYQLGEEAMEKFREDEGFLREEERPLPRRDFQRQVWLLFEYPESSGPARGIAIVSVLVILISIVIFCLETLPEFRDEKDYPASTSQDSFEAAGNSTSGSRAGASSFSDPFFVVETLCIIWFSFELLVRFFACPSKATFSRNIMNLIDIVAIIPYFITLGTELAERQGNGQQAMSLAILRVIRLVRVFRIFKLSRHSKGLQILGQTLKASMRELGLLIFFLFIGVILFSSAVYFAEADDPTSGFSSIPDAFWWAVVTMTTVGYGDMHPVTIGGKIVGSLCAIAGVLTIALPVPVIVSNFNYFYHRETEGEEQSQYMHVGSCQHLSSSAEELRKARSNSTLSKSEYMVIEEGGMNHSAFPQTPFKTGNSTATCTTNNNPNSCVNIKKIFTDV

B1: CllTx1-Fc fusion protein (Fc fusion)
chain: ITINVKCTSPQQCLRPCKDRFGQHAGGKCINGKCKCYP
modifications: ends and bridges not checked; also: fused to human IgG1 Fc fragment, limits and linker not given here
notes: mature; also called recombinant CllTx1-Fc fusion protein; not shown: human IgG1 Fc fragment
B1: binds.
